Measurements taken from patent US20060140929A1 (Merck KGaA, published 2006).
Where a chain is given by its changes, count along the chain named. Numbers in names are those of the source.

B1: hirudin mutein M 37 (L13T) (other)
chain: VVYTDCTESGQNTCLCEGSVVCGQGNKCILGSDGEKNQCVTGEGTPKPESHNDGDFEEIPEEYLQ
B2: hirudin mutein M 49 (V21R) (other)
chain: B1 chain with T13L, V21R
B3: hirudin mutein M 13 (I29A L30Q) (other)
chain: B1 chain with T13L, I29A, L30Q
B4: hirudin mutein M 64 (L30G) (other)
chain: B1 chain with T13L, L30G
B5: hirudin mutein M 46 (V21N) (other)
chain: B1 chain with T13L, V21N
B6: hirudin mutein M 74 (V40T) (other)
chain: B1 chain with T13L, V40T
B7: hirudin mutein M 14 (I29A L30R) (other)
chain: B1 chain with T13L, I29A, L30R
B8: hirudin mutein M 38 (L15A) (other)
chain: B1 chain with T13L, L15A
B9: hirudin mutein M 76 (P48A) (other)
chain: B1 chain with T13L, P48A
B10: hirudin mutein M 19 (I29E L30K) (other)
chain: B1 chain with T13L, I29E, L30K
B11: hirudin mutein M 21 (I29E L30R) (other)
chain: B1 chain with T13L, I29E, L30R
B12: hirudin mutein M 20 (I29E L30Q) (other)
chain: B1 chain with T13L, I29E, L30Q
B13: hirudin mutein M 77 (P48T) (other)
chain: B1 chain with T13L, P48T
B14: hirudin mutein M 17 (I29D L30Q) (other)
chain: B1 chain with T13L, I29D, L30Q
B15: hirudin mutein M 41 (L15T) (other)
chain: B1 chain with T13L, L15T
B16: hirudin mutein M 40 (L15Q) (other)
chain: B1 chain with T13L, L15Q
B17: hirudin mutein M 22 (I29E L30T) (other)
chain: B1 chain with T13L, I29E, L30T
B18: hirudin mutein M 58 (I29R) (other)
chain: B1 chain with T13L, I29R
B19: hirudin mutein M 61 (L30A) (other)
chain: B1 chain with T13L, L30A
B20: hirudin mutein M 15 (I29A L30T) (other)
chain: B1 chain with T13L, I29A, L30T
B21: hirudin mutein M 81 (F56H) (other)
chain: B1 chain with T13L, F56H
B22: hirudin mutein M 63 (L30E) (other)
chain: B1 chain with T13L, L30E
B23: hirudin mutein M 71 (L30S) (other)
chain: B1 chain with T13L, L30S
B24: hirudin mutein M 52 (I29E) (other)
chain: B1 chain with T13L, I29E
B25: hirudin mutein M 39 (L15H) (other)
chain: B1 chain with T13L, L15H
B26: hirudin mutein M 73 (V40A) (other)
chain: B1 chain with T13L, V40A
B27: hirudin mutein M 62 (L30D) (other)
chain: B1 chain with T13L, L30D
B28: hirudin mutein M 60 (I29T) (other)
chain: B1 chain with T13L, I29T
B29: hirudin mutein M 50 (I29A) (other)
chain: B1 chain with T13L, I29A
B30: hirudin mutein M 51 (I29D) (other)
chain: B1 chain with T13L, I29D
B31: hirudin mutein M 68 (L30P) (other)
chain: B1 chain with T13L, L30P
B32: hirudin mutein M 66 (L30K) (other)
chain: B1 chain with T13L, L30K
B33: hirudin mutein M 16 (I29D L30A) (other)
chain: B1 chain with T13L, I29D, L30A
B34: hirudin mutein M 67 (L30N) (other)
chain: B1 chain with T13L, L30N
B35: hirudin mutein M 55 (I29K) (other)
chain: B1 chain with T13L, I29K
B36: hirudin mutein M 78 (D53E) (other)
chain: B1 chain with T13L, D53E
B37: hirudin mutein M 70 (L30R) (other)
chain: B1 chain with T13L, L30R
B38: hirudin mutein M 79 (D53N) (other)
chain: B1 chain with T13L, D53N
B39: hirudin mutein M 48 (V21Q) (other)
chain: B1 chain with T13L, V21Q
B40: hirudin mutein M 59 (I29S) (other)
chain: B1 chain with T13L, I29S
B41: hirudin mutein M 56 (I29N) (other)
chain: B1 chain with T13L, I29N
B42: hirudin mutein M 47 (V21P) (other)
chain: B1 chain with T13L, V21P
B43: hirudin mutein M 75 (K47T) (other)
chain: B1 chain with T13L, K47T
B44: hirudin mutein M 57 (I29Q) (other)
chain: B1 chain with T13L, I29Q
B45: hirudin mutein M 65 (L30H) (other)
chain: B1 chain with T13L, L30H
B46: hirudin mutein M 53 (I29G) (other)
chain: B1 chain with T13L, I29G
B47: hirudin mutein M 80 (D53R) (other)
chain: B1 chain with T13L, D53R
B48: hirudin mutein M 69 (L30Q) (other)
chain: B1 chain with T13L, L30Q
B49: hirudin mutein M 1 (I29A L30A) (other)
chain: B1 chain with T13L, I29A, L30A
B50: hirudin mutein M 12 (I29A L30K) (other)
chain: B1 chain with T13L, I29A, L30K
B51: hirudin mutein M 54 (I29H) (other)
chain: B1 chain with T13L, I29H
B52: hirudin mutein M 72 (L30T) (other)
chain: B1 chain with T13L, L30T

Molecular target: thrombin
Assay: cell-based or functional assay

Binder | Relative Activity (ratio of variant IC50/WT IC50), chromogenic thrombin inhibition assay [ratio]
B1 | 0.6
B2 | 0.77
B3 | 1.6
B4 | 2.2
B5 | 0.83
B6 | 1
B7 | 2.7
B8 | 0.9
B9 | 1
B10 | 1.1
B11 | 1.21
B12 | 1.52
B13 | 1
B14 | 2
B15 | 0.4
B16 | 0.34
B17 | 1.8
B18 | 1
B19 | 1
B20 | 1.21
B21 | 0.8
B22 | 3.33
B23 | 1.83
B24 | 1
B25 | 0.65
B26 | 1

Binder | Relative Activity (ratio of variant IC50/WT IC50), chromogenic thrombin inhibition assay [ratio]
B27 | 2
B28 | 1
B29 | 1
B30 | 1
B31 | 1.83
B32 | 1
B33 | 1.6
B34 | 1.54
B35 | 1
B36 | 1
B37 | 1
B38 | 1
B39 | 0.83
B40 | 1
B41 | 1
B42 | 1
B43 | 2.2
B44 | 1
B45 | 1
B46 | 1.8
B47 | 1
B48 | 1
B49 | 1.4
B50 | 1.45
B51 | 1
B52 | 1
